In patent US20200317768A1 (published 2020):
Substitutions are numbered along the chain they refer to.

T1: human FcγRIIb extracellular domain, His-tagged (human, UniProt P31994 43-217)
T1 construct: also called FcgRIIb (human); not shown: C-terminal His-tag
T1 sequence: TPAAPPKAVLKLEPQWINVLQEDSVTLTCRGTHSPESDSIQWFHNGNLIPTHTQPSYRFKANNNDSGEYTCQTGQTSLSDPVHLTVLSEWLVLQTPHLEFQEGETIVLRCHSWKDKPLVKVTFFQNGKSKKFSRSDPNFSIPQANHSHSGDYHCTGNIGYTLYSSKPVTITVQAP

B1: MS_M103205H795-SG1/M103202L889-SK1 (antibody, human IgG1, kappa)
heavy: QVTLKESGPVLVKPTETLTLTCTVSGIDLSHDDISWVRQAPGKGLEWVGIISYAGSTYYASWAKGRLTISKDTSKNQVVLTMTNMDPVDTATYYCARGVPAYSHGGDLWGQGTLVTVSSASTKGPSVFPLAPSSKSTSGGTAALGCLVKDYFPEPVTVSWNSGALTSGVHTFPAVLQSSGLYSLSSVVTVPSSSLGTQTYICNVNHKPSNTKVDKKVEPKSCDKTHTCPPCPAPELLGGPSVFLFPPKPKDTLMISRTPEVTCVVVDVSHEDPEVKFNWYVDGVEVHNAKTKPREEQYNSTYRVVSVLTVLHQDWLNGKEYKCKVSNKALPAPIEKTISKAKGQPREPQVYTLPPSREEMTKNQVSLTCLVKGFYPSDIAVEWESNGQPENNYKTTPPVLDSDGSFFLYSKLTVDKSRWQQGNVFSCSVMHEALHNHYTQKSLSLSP
light: DIVMTQSPATLSLSPGERATLSCTSSQSVYHANWLSWFQQKPGQPPKLLIYWASTLAYGVPSRFSGSGSGTDFTLTISSLQPEDAATYYCAGGYGGGRYAFGQGTKVEIKRTVAAPSVFIFPPSDEQLKSGTASVVCLLNNFYPREAKVQWKVDNALQSGNSQESVTEQDSKDSTYSLSSTLTLSKADYEKHKVYACEVTHQGLSSPVTKSFNRGEC
notes: Parent antibody with heavy chain constant region SG1; also called MS1032LO06-SG1; copies: 2 + 2
B2: M103205H795-MY476/M103202L889-SK1 (antibody, human IgG1, kappa)
heavy: QVTLKESGPVLVKPTETLTLTCTVSGIDLSHDDISWVRQAPGKGLEWVGIISYAGSTYYASWAKGRLTISKDTSKNQVVLTMTNMDPVDTATYYCARGVPAYSHGGDLWGQGTLVTVSSASTKGPSVFPLAPSSKSTSGGTAALGCLVKDYFPEPVTVSWNSGALTSGVHTFPAVLQSSGLYSLSSVVTVPSSSLGTQTYICNVNHKPSNTKVDKKVEPKSCDKTHTCPPCPYPELLTGPSVFLFPPKPKDTLMISRTPEVTCVVVDVSDEDPEVKFNWYVDGVEVHNAKTKPREEQYNSTYRVVSVLTVLHQDWLNGKEYKCKVSNKALPKPIEKTISKAKGQPREPQVYTLPPSREEMTKNQVSLTCLVKGFYPSDIAVEWESNGQPENNYKTTPPVLDSDGSFFLYSKLTVDKSRWQQGNVFSCSVMHEALHNHYTQKSLSLSP
light: B1 light
notes: copies: 2 + 2
B3: M103205H795-MY442/M103202L889-SK1 (antibody, human IgG1, kappa)
heavy: B2 heavy with Y233A, P234D
light: B1 light
notes: copies: 2 + 2
B4: M103205H795-MY446/M103202L889-SK1 (antibody, human IgG1, kappa)
heavy: B2 heavy with Y233A, P234H
light: B1 light
notes: copies: 2 + 2
B5: M103205H795-MY474/M103202L889-SK1 (antibody, human IgG1, kappa)
heavy: B2 heavy with Y233V
light: B1 light
notes: copies: 2 + 2
B6: M103205H795-MY472/M103202L889-SK1 (antibody, human IgG1, kappa)
heavy: B2 heavy with Y233S
light: B1 light
notes: copies: 2 + 2
B7: M103205H795-MY448/M103202L889-SK1 (antibody, human IgG1, kappa)
heavy: B2 heavy with Y233A, P234K
light: B1 light
notes: copies: 2 + 2
B8: M103205H795-MY447/M103202L889-SK1 (antibody, human IgG1, kappa)
heavy: B2 heavy with Y233A, P234I
light: B1 light
notes: copies: 2 + 2
B9: M103205H795-MY475/M103202L889-SK1 (antibody, human IgG1, kappa)
heavy: B2 heavy with Y233W
light: B1 light
notes: copies: 2 + 2
B10: M103205H795-MY461/M103202L889-SK1 (antibody, human IgG1, kappa)
heavy: B2 heavy with Y233F
light: B1 light
notes: copies: 2 + 2
B11: M103205H795-MY445/M103202L889-SK1 (antibody, human IgG1, kappa)
heavy: B2 heavy with Y233A, P234G
light: B1 light
notes: copies: 2 + 2
B12: M103205H795-MY460/M103202L889-SK1 (antibody, human IgG1, kappa)
heavy: B2 heavy with Y233E
light: B1 light
notes: copies: 2 + 2
B13: M103205H795-MY467/M103202L889-SK1 (antibody, human IgG1, kappa)
heavy: B2 heavy with Y233M
light: B1 light
notes: copies: 2 + 2
B14: M103205H795-MY444/M103202L889-SK1 (antibody, human IgG1, kappa)
heavy: B2 heavy with Y233A, P234F
light: B1 light
notes: copies: 2 + 2
B15: M103205H795-MY473/M103202L889-SK1 (antibody, human IgG1, kappa)
heavy: B2 heavy with Y233T
light: B1 light
notes: copies: 2 + 2
B16: M103205H795-MY464/M103202L889-SK1 (antibody, human IgG1, kappa)
heavy: B2 heavy with Y233I
light: B1 light
notes: copies: 2 + 2
B17: M103205H795-MY466/M103202L889-SK1 (antibody, human IgG1, kappa)
heavy: B2 heavy with Y233L
light: B1 light
notes: copies: 2 + 2
B18: M103205H795-MY470/M103202L889-SK1 (antibody, human IgG1, kappa)
heavy: B2 heavy with Y233Q
light: B1 light
notes: copies: 2 + 2
B19: M103205H795-MY265/M103202L889-SK1 (antibody, human IgG1, kappa)
heavy: B2 heavy with Y233A
light: B1 light
notes: also called MS103205H795-MY265; copies: 2 + 2
B20: M103205H795-MY468/M103202L889-SK1 (antibody, human IgG1, kappa)
heavy: B2 heavy with Y233N
light: B1 light
notes: copies: 2 + 2
B21: M103205H795-MY462/M103202L889-SK1 (antibody, human IgG1, kappa)
heavy: B2 heavy with Y233G
light: B1 light
notes: copies: 2 + 2
B22: M103205H795-MY463/M103202L889-SK1 (antibody, human IgG1, kappa)
heavy: B2 heavy with Y233H
light: B1 light
notes: copies: 2 + 2
B23: M103205H795-MY465/M103202L889-SK1 (antibody, human IgG1, kappa)
heavy: B2 heavy with Y233K
light: B1 light
notes: copies: 2 + 2
B24: M103205H795-MY471/M103202L889-SK1 (antibody, human IgG1, kappa)
heavy: B2 heavy with Y233R
light: B1 light
notes: copies: 2 + 2
B25: M103205H795-MY443/M103202L889-SK1 (antibody, human IgG1, kappa)
heavy: B2 heavy with Y233A, P234E
light: B1 light
notes: copies: 2 + 2
B26: M103205H795-MY459/M103202L889-SK1 (antibody, human IgG1, kappa)
heavy: B2 heavy with Y233D
light: B1 light
notes: copies: 2 + 2
B27: M103205H795-MY469/M103202L889-SK1 (antibody, human IgG1, kappa)
heavy: B2 heavy with Y233P
light: B1 light
notes: copies: 2 + 2
B28: M103205H795-MY441/M103202L889-SK1 (antibody, human IgG1, kappa)
heavy: B2 heavy with Y233A, P234A
light: B1 light
notes: copies: 2 + 2

The binders below were run against T1, human FcγRIIb extracellular domain, … (assay: SPR (BIACORE), captured antibody, FcgR as analyte).

Row | Kd | Binder
1 | 4600 nM | B1
2 | 1200 nM | B2
3 | 1800 nM | B3
4 | 2400 nM | B4
5 | 2000 nM | B5
6 | 2500 nM | B6
7 | 8400 nM | B7
8 | 440 nM | B8
9 | 1100 nM | B9
10 | 1700 nM | B10
11 | 4200 nM | B11
12 | 2400 nM | B12
13 | 2000 nM | B13
14 | 740 nM | B14
15 | 2200 nM | B15
16 | 1600 nM | B16
17 | 1400 nM | B17
18 | 2700 nM | B18
19 | 2200 nM | B19
20 | 2600 nM | B20
21 | 1900 nM | B21
22 | 2800 nM | B22
23 | 2800 nM | B23
24 | 2800 nM | B24
25 | 2800 nM | B25
26 | 2500 nM | B26
27 | 2400 nM | B27
28 | 2800 nM | B28
